This is an account of results in publication PMC5146981, “MMP-13 is constitutively produced in human chondrocytes and co-endocytosed with ADAMTS-5 and TIMP-3 by the endocytic receptor LRP1” (Matrix Biology, 2016).

Like-named read-outs stand apart in the source and are kept apart here.

Assay [1] concerns the target purified human full-length LRP1 (low-density lipoprotein receptor-related protein 1) (human). Nature of the assay: ELISA; solid-phase binding; full-length LRP1 (5 nM in TNC) coated on microtiter plates overnight at 4 °C, blocked with 3% BSA; MMPs 0-50 nM for 3 h at room temperature; detected with anti-MMP antibodies and HRP secondary antibody; apparent KD (K_D,app).
Assay [2] addresses purified human full-length LRP1 (low-density lipoprotein receptor-related protein 1). Nature of the assay: solid-phase binding assay (ELISA) on immobilized LRP1. The conditions noted are these: point at 50 nM MMP, read off a plot. Background: ELISA stands for enzyme-linked immunosorbent assay.
For assay [3] the target is unchanged. The experiment in a line: competition solid-phase binding assay (ELISA) on immobilized LRP1. As to conditions: 200 nM proMMP-1(E200A) as competitor of 6 nM proMMP-13(E223A); detection with anti-FLAG M2 antibody; read off a plot.
Assay [4] addresses purified human full-length LRP1 (low-density lipoprotein receptor-related protein 1) (human). Nature of the assay: ELISA; full-length LRP1 coated; proMMP-13(E223A) 0-40 nM in the absence or presence of 50 nM ADAMTS-5, 250 nM ADAMTS-4 or 50 nM TIMP-3 plus 50 μM CT1746; apparent KD (K_D,app).
In assay [5] the target is LRP1 ligand-binding cluster I (human) (UniProt Q07954). The experiment in a line: ELISA; purified LRP1 fragments (clusters I to IV) coated on microtiter plates; proMMP-13(E223A) or Hpx_(MMP-13) 0-200 nM; detected with anti-MMP-13 181-14G11; extrapolated apparent KD (K_D,app).
In assay [6] the target is LRP1 ligand-binding cluster IV (human) (UniProt Q07954). Described as above.
In assay [7] the target is T1, LRP1 ligand-binding cluster II (human, UniProt Q07954 852-1182).
T1 construct: also called soluble LRP1 cluster II
T1 sequence (looked up): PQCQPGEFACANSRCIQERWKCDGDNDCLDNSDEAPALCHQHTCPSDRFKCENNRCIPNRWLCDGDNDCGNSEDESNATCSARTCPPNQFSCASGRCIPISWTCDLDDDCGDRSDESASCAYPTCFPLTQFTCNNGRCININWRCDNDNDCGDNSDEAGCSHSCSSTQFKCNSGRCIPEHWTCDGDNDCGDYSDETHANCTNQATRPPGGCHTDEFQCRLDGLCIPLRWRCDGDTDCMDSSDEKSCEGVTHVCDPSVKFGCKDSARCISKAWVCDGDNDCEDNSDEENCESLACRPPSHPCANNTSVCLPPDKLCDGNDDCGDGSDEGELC
Described as above.

The target in assay [8] is LRP1 ligand-binding cluster III (human, UniProt Q07954 2522-2940). The description is as above.
The target of assay [9] is purified human full-length LRP1 (low-density lipoprotein receptor-related protein 1) (human).

Chain of LRP1 ligand-binding cluster III (Q07954 2522-2940): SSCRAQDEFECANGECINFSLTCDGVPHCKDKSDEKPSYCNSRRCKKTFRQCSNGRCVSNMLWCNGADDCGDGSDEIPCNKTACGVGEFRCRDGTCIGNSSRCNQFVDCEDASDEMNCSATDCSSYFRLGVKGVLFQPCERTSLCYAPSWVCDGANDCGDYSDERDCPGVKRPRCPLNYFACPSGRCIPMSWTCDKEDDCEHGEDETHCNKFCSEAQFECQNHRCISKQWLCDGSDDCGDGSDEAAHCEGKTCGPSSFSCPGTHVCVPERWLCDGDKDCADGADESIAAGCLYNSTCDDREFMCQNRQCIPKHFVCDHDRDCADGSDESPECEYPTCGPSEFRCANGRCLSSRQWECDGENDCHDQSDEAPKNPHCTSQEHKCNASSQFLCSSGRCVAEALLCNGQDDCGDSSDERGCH
Chain of LRP1 ligand-binding cluster I (human) (Q07954 20-4544): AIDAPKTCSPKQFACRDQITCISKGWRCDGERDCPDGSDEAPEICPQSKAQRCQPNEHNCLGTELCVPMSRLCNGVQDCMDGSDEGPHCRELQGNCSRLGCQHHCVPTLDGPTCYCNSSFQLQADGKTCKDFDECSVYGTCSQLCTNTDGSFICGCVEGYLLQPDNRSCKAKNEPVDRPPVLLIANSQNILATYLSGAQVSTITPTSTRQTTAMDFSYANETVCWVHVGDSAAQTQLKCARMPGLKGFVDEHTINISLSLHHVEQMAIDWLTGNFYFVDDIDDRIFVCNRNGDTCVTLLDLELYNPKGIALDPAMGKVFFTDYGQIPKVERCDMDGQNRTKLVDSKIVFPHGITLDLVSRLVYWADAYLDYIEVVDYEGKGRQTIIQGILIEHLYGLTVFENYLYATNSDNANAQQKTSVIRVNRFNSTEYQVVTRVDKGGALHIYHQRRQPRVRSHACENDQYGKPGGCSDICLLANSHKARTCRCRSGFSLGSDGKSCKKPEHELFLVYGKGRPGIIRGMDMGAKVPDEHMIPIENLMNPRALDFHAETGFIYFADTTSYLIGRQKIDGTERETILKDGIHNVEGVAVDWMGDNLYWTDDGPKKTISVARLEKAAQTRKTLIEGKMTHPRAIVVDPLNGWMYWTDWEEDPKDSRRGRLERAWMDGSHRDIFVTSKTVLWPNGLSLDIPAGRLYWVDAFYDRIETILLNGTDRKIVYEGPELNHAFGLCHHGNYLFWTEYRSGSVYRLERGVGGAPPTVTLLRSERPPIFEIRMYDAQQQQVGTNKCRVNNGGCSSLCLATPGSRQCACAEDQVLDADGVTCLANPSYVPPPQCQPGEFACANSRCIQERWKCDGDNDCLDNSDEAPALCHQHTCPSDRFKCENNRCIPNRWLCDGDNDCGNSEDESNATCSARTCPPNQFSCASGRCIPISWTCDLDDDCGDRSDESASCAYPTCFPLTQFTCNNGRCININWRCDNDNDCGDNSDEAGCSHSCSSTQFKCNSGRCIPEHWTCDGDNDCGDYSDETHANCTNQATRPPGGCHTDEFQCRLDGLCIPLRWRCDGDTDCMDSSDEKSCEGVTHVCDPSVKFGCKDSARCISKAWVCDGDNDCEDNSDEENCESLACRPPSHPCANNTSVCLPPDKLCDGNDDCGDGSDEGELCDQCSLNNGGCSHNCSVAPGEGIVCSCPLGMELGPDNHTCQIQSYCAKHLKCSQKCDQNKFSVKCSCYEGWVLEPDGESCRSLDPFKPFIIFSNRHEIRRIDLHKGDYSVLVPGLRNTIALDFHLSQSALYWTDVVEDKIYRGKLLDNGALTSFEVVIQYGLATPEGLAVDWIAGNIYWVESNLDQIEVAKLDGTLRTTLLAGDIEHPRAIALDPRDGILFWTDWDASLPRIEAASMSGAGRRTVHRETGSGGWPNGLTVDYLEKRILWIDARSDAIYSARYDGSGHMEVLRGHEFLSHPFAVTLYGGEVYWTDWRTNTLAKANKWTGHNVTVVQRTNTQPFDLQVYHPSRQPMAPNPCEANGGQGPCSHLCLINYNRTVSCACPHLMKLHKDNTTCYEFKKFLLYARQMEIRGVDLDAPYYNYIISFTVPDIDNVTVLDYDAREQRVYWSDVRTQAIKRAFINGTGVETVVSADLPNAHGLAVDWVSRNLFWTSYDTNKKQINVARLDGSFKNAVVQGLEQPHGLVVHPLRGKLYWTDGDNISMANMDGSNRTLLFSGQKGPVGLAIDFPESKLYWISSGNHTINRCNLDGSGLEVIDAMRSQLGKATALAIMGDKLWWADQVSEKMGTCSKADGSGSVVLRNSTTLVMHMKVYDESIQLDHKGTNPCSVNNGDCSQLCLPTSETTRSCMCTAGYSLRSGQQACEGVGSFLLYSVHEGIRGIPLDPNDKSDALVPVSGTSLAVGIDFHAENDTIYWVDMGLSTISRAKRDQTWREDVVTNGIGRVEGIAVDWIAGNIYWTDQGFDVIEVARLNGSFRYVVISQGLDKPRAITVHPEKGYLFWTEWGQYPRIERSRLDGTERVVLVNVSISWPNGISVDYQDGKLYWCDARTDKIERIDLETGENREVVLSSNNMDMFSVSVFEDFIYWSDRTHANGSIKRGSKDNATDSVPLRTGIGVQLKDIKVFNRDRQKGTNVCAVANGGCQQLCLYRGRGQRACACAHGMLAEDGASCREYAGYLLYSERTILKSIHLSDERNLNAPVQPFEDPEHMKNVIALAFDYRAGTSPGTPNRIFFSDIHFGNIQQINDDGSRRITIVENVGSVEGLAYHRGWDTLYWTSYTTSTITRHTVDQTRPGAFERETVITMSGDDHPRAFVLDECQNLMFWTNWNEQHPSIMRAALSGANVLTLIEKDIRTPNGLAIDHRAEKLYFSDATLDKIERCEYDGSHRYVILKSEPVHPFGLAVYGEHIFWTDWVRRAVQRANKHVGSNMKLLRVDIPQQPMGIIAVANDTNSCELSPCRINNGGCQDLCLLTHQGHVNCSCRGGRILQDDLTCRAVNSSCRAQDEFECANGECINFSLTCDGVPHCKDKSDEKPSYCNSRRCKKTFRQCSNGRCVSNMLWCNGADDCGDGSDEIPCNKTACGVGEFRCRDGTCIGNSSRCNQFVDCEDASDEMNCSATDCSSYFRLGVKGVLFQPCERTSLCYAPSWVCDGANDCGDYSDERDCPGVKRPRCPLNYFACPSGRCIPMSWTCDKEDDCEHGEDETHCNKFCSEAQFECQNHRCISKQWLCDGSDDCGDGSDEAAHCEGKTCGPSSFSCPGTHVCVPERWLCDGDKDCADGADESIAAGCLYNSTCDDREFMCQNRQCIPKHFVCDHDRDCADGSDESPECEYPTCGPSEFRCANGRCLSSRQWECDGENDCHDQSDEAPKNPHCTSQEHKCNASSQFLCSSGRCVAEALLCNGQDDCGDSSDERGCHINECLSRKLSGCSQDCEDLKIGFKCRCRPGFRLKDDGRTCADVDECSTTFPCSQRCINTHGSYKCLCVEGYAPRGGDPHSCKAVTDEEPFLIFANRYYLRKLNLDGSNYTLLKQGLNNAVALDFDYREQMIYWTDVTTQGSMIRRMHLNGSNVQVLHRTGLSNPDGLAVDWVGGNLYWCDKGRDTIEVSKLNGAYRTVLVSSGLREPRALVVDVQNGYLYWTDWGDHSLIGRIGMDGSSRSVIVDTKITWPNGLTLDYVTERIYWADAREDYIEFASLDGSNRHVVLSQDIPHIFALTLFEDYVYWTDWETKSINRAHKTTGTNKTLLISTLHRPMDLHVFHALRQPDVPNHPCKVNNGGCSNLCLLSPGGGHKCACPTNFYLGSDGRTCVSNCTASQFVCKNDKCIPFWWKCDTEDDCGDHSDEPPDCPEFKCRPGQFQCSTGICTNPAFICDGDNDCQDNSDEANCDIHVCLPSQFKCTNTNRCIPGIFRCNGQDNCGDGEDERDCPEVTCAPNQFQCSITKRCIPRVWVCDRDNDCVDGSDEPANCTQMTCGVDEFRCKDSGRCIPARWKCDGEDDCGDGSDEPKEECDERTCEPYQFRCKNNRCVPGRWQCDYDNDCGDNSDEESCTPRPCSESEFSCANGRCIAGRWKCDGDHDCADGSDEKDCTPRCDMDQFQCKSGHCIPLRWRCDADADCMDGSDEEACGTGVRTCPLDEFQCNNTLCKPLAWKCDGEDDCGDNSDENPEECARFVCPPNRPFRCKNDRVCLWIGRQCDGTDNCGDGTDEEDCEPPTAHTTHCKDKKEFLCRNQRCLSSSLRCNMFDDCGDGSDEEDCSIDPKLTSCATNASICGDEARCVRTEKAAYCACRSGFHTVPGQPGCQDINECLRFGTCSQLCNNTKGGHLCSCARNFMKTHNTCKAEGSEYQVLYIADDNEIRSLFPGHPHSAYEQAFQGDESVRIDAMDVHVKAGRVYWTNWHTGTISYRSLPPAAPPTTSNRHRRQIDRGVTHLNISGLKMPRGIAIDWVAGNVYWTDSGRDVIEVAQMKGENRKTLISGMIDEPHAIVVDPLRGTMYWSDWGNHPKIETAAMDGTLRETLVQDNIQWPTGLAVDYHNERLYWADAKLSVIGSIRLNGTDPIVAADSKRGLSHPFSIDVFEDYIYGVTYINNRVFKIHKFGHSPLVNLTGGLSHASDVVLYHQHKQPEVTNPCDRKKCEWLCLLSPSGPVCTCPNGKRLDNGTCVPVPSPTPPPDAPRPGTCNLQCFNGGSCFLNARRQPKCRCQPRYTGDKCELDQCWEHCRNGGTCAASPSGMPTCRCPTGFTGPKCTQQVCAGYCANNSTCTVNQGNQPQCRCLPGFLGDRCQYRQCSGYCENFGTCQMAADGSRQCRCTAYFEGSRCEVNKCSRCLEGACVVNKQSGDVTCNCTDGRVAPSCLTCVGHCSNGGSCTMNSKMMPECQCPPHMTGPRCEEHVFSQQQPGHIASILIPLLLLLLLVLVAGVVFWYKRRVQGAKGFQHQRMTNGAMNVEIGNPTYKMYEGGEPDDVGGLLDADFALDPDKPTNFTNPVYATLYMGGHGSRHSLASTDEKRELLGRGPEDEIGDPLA
Chain of LRP1 ligand-binding cluster IV (human) (Q07954 20-4544): as above

Take “MMP-13(E223A), activated form (from UniProt P45452 104-471) (enzyme)”: the Kd in assay [1] was determined as 3.8 nM.

Take proMMP-1 E200A: in assay [2] (detection with anti-MMP-1 (SB12e) antibody), the response (absorbance at 450 nm) is 0.13. For the same molecule, the other: ProMMP-13 bound to LRP1 (% of amount bound without competitor) in assay [3] came to 100%.

With “proMMP-1-1-13(E200A) (MMP-1_(1-258)-MMP-13_(264-451)) (enzyme)”, the Kd in assay [1] was found to be 5.1 nM.

For proMMP-3 E202A, in [2] (detection with anti-MMP-3 (4B7.3) antibody), the response (absorbance at 450 nm) was 0.25.

On to “proMMP-13(E223A) (from UniProt P45452 20-471) (enzyme)”, for which, in [4], the K D,app in the presence of 50 nM ADAMTS-5 stood at 5.2 nM. For the same molecule, the K D,app in the presence of 50 nM TIMP-3 in assay [4] turned out to be 8.2 nM. The K D,app in the presence of 250 nM ADAMTS-4 in [4] worked out at 5.6 nM. Also, the Kd is above 200 nM in assay [5]; above 100 nM in assay [6]; 17 nM in assay [7]; 24 nM in assay [8]; 6 nM in [1].

Molecule “proMMP-13(WT), MMP-13 with a FLAG tag between the signal and propeptide” returned a clearance of 10 nM exogenous proMMP-13 from the medium of human chondrocytes, 0-4 h, Western blot; inhibited by 500 nM RAP and in LRP1-silenced cells in assay [9] of 70 min.

With “proMMP-13(WT), MMP-13 with a FLAG tag between the signal and propeptide (enzyme)”, the proMMP-13 (10 nM) found in the cell lysate after 1 h with human chondrocytes at 4 °C (surface binding); abolished in the presence of 500 nM RAP in assay [9] came out at 25%. Besides, the Kd in [1] is 5.9 nM.

B1: hemopexin domain of MMP-13 (Hpx_(MMP-13)) (domain or fragment, human, UniProt P45452 284-471, looked up)
chain: CDPSLSLDAITSLRGETMIFKDRFFWRLHPQQVDAELFLTKSFWPELPNRIDAAYEHPSHDLIFIFRGRKFWALNGYDILEGYPKKISELGLPKEVKKISAAVHFEDTGKTLLFSGNQVWRYDDTNHIMDKDYPRLIEEDFPGIGDKVDAVYEKNGYIYFFNGPIQFEYSIWSNRIVRVMPANSILWC
notes: MMP-13 (collagenase 3), human, hemopexin domain released by autolysis; also called Hpx domain of MMP-13; source: from proMMP-13 incubated with 1 mM APMA at 37 °C for at least 16 h
Consider B1, for which the Kd in assay [5] is above 200 nM; in [6], above 50 nM; in assay [7] (both partners purified), 15 nM; in [8] (both partners purified), 13 nM; in assay [1], 2.7 nM.
